From the DeepSol protein solubility set

Assay: soluble on expression in E. coli; label from the status in PepcDB or PDB records
For “MAHHHHHHMSRLMPHYSKGKTAFLCVDLQEAFSKRIENFANCVFVANRLARLHEVVPENTKYIVTEHYPKGLGRIVPEITLPKTAHLIEKTRFSCVVPQVEELLEDVDNAVVFGIEGHACILQTVADLLDMNKRVFLPKDGLGSQKKTDFKAAIKLMSSWGPNCEITTSESILLQMTKDAMDPNFKRISKLLKEEPPIPL”, the “soluble on expression in E. coli” value was “soluble”.
In the case of “MAHHHHHHMSRLVMTAPPSLPPFLLLSGASSPPPPPISHTHTHTHTHTHTAMASLAHLSTPLPSEPSAAAPPPAASAPAGALHLERFLESVLKQNLDTVLSQRDELYATVAQCAQLRWLMDDMQALSRYHSFIEASTAAETAAAVPLSALSPVASGSPNASLPLMSKRAQADAYKPPQKNKVLVDLGNHFYTQGVVKDAGVLFMNMGCGVVLPMSLDEAREFLRKKEAVVRRMIMNKSKEALRIKYRIRLVTEAIARLHERHLGL”, the “soluble on expression in E. coli” value is reported as “not soluble”.
In the case of “MAHHHHHHMSTNSAKILSRVREAMKLHSINALIVPSSDPHNSEYVMDSYKCRGFLTNFNGSAGTCLITMEEAYLWTDGRYWLEAGHCLYPEWQLMRDGHPGVPSLEDFVRLNLQPDLLVGMNDNLATVAEWERRRKAINLVPIPEIVRPLMPQNSDAKAEMLSIRPEQFCGQTREEKVMALVEELKGQKCEAMILSALDEVAWLTNLRGSDVPYNPVFYSYALVRSAPDPTVALFVDSAKVSSPVEAELTQSGRSVVSVSLHPYEALEDYVRALPAGTAFLVDEYQTSQRLYSLLESCKMKVNRVKCGPAQRLKAVKNAVEIEGFRRCHVRDGVALTRYLAWLHDMIVVKGDTTITECSGADVVEGFRREQEHFVQLSFPTISSVGPNGAVVHYTPPKEGSATIVPDQLYLVDSGAQYLDGTTDVTRTVCFNPPSDEERQAYTLVLKGHLALHNAVWPTGTTGHRLDALARVHLWRYGLDYAHGTGHGVGSFLNVHEGPQGIGYRPTPTEATLAAGMIMSNEPGYYKAGKYGIRIENLEVIVRAPTRHSQEGFLTFEALTMVPLCRDLIDVSMLTADEVRLVNDYHRTVRDALTPHLRRVNDSCALAYVERHTAELCALEGGC”, the “soluble on expression in E. coli” value is reported as “soluble”.
With “MAHHHHHHMSVVTTLSGVFEADLEATLMGYIHEAIGNAVNKGLQYARSTAQDRVLKMLIAYRRVCTSNATSSLLMPSRLRLIPLFVLSFMKADALVEGTTVPIDDRVQKLFLLMTIPMHQCVTYLYPTLYAVHHLLSEPTSGVIDPETGHCVLPGWQQLIFDSITTDGVYVLCDEQARIVYLWIGSSVVPEVSLELFGTTNALDVGRTVFFENFGERLKNVLYTCLMRDDGMRRFVILHEKDRGEEAFFRQFKEENEGGSMGYDQLLVHLHREVKKSIE” the “soluble on expression in E. coli” value was “not soluble”.
For “MAHHHHHHMSWQGPRVLVVGENQWEREAVSRALLNLAVRHGSPYGICYVDLDVAMPMVGCPGTVSAAFVEEPVTAPEDFGVMMPLTFFHGTASVTSATRKRYLDLCVCAAQAATSLGFANSKFEAGGFLIHSLSPSTEIQHDVLSDVLSIFAVTHVVVTGADRELEKFLYNAVLGRTVHFVRLPKLAGVQSPSSAGAEQRRRAQLERYFFGTPRTPLVPVRGVARMSELVLLHAETFEPLSWREVPDLGLAAVVWADTAASAAEANVAGFVALLEVGKQFVSFLAPSGGELPKPFLVVSPSLHLPRELVMPLPVT”, the “soluble on expression in E. coli” value was “not soluble”.
With “MAHHHHHHMTDTTKGALKRSNTLFLSDAEQFVFDFGGSAGGRAVSPGSSHGSGGQPGEGDGEKGIEETDLANGRTGVVTPFSERERTAPVAPLDAEEVQRYFDKALKGGRRILLENVPLDEAIEKFQLGLRRYEEWLCNQANSRNRGDSSKSRGDPLNEGYRGKPGDVARDAKDRKRPRL” the “soluble on expression in E. coli” value was “not soluble”.
In the case of “MAHHHHHHMTETVLRLGPQEYAHLTNLNTNTTELILGPLNRPVASHESVALPPTKFVVVPPTQYCLIANPHRTAVDPTTGIAQPVRDAYGQVQVRSGEEEYRWHVPPFPLYPEEAVVKLEDLKVLSARAALQIQVLAAYNVPACSASDSMPSPVRREAGERYSSAAPAPTTLALRSTSRRR”, the “soluble on expression in E. coli” value is reported as “soluble”.
In the case of “MAHHHHHHMTVHLLWIINQSGQLIAKSSFTAPENIGELGAKPDLQLTMSSILFSTYGMSQELTPNANPVDSAGMTLVECEEHNIHIYETPTLVKFVLVSDSRTRECNALFRELHSLYVEYVMKNPFHIVDEGGIGQPIRIAAFTGAVKRAVDRYHAAGVSNATRK”, the “soluble on expression in E. coli” value is reported as “not soluble”.
With “MAHHHHHHMVGARFFFLNLPTSLSSASSLNRNKITSNRLPTDPSTPQWRDGYKLRKAVDDSSTQSTHRLPIYFCNAQRRVSSHSGRKTLLLATICIYDVGALDSFPIVLLVPLLNFIKSGLNEVDGSADCVDFSEYQCLTAPFPTTFRISLCPRLRFGGQFFFFCTHSRGDKNSRSILSHQRLAKFVPLFHTWYNEQDIS” the “soluble on expression in E. coli” value was “not soluble”.
In the case of “MAHHHHHHMVKETGLYDELGISPDATEPQIRSAYRRKALQYHPDKNSGDPAAAEKFKKVAEAYEILSDAERRKQYDTFGRNGPGGAAGGSGGVPGGGFGSSFGPGTDPMDIFSSFFGFASGGGPGASRQQRPAKPSFILVVLQCSLEELYCGTVKVLQVRRRRLCPSCHGHGTSSGRPSPVCPQCKGNKTVTKALNFGGLTAYQQCRCDHCEGLGKLPIRLPCARCGPVYDAHQRAPLSGTRKPDPLPRGVVVDEKMIKVSIEPGTEDSDALNYVGQGDELPGFGAVGDVLVVIEQLPHPHYHRLNSTDLLLSNCRVPLGCLFRDAFSIPIELLDGRVLRLATPLREGNVPHFLFDSQHVFVVDGEGMPLKGRKGGGAAADANHDDSGAADDVAYRKKGKLYLCVNVVFPSSLTPAQVDIIAKALGGDHERDPAATGEDAGRVVTLQPHHSPAPSWYTVDTEGNAWYQPNGPATAKKKRKATSTTA”, the “soluble on expression in E. coli” value is reported as “not soluble”.
In the case of “MAHHHHHHMVSVDTSTRRFLEMFCDFDAKRCKLCNETFLQWHIHANGIPHAGREGMLLELVRPYCGTPDELIEMWWQRLNSCAAFHRIPGLSHDNPHERKRRLLYLLKVLKDRGILVETFNVSDNQSTNSARSWEFERLEFVGDNVVKYVLNNIISCAFPPHEGGTKGKMTCFQFVMDGNDGLARGYDHLDLQQLASSPRVVSKFKSDIVETLFAELQMYLWSTQHDIGTCPLVFPFTKDIYTLRALVQHVLYELGIELFLYHIRHINGMLQRVMRENHLQFVKADSALKPRAGARTGSLGVSTRRGDWSDDDDDYDCPQSYGTPAVSAPTAALMKVRSQRTHVQGTGAALFFASTNYDNFKRVVPIGGLLPRPFARQDLSVIPNHMPHLRSDGAMTRRMRRVGNAGWSTLHATATALTTLESVADGLALSAETTPRVGSEPVRLSVPRLKDEELIPELI”, the “soluble on expression in E. coli” value is reported as “not soluble”.
With “MAHHHHHHMVWKGSRERGVQEYRKKSKGNKPTKGEKVSKKGVSSSRQPKQRELLSAKQQQQQNRKNEELRAALAGAFSTEVSSSNAGPAFDGYGKGSPTDRLQFGYAPAVAAEAVAYHSTISTDAWIEARRTRYRTAIVEQKKLRRPNCEPITSILKLQGHWRSTELFEREVHGSHAVAQDKVDDILDTFVSRQRVA” the “soluble on expression in E. coli” value was “not soluble”.
With “MAHHHHHHMWEETYVRACANLGVQPRNEVLAAVGGTAQLCGNTFANFENRLTDEELAALCETCRQISLVAVVRLPYNNITCRGATALAKAMKEGFSTLQYLDLSYNSINEEGANAIAAAATNYEMLSTLLLNGNPIGGGSGPCLKTLLESENTQLVTLDLEQTDQGLKSLVHIARGLVHNTTLTTLNLGRPLMTNPMDVSYVVEHLSLALKENRTLRFLGLSHFNMADCDLALLLSTLRDSAVTTLSLKGNKLSQASGEPLAQLLAHRPDFLSLDVTANRLRDVGALAIAAVIANHPGLRELQIGFNTIGGVGISALAQSLAANASITTLKLWGNDLTDESVRDLYAIRGRFESMEVTDFSFYVVDGCPMVARE” the “soluble on expression in E. coli” value was “not soluble”.
In the case of “MAHHHHHHMYDDVEVRRREEARQHTAASLIQRRWREHAERRSLEQDAAPLRGTGGNGVLLVASDAFGDVVGRRGGETDEALRPLKSDGFDELAQTVQTPEEKRRACVEEYRALLAKRKALLENNLVYQQLLSRHYAEQRRRNGEDEVAQLTTPDAEAAYWALVRQVAEERQRVAARSTALKKDLELQRQRYEPIMEEAATQERNFQQYIQELAASVRFMRSNRPIPTEAIEKYIELEAVQRSAIHASRVRYLQLKNRLLRLRRVAKGGAALSSSAPTATAAATGQDGEESNAANHHMFLIDFEQLKVENTSLNEKIEERSEEVLKLRNKVTNTIHIATHVREKLDCVRAENAELRQHVASTDEELGGARDQLAKSKRRRDAHLRANTRMKERMPLVGSRDLLMDYEKRKAVIYNYRTRLVQLTDRHKELTDSIKKEESTIVSLQHELSHYPK”, the “soluble on expression in E. coli” value is reported as “not soluble”.
In the case of “MAHHHHHHMYKLVLIRHGESTWNKENRFTGWVDVDLTEQGNREARQAGQLLKEAGYTFDIAYTSVLKRAIRTLWHVQDQMDLMYVPVVHSWRLNERHYGALSGLNKAETAAKYGDEQVLVWRRSYDTPPPALEPGDERAPYADPRYAKVPREQLPLTECLKDTVARVLPLWNESIAPAVKAGKQVLIAAHGNSLRALIKYLDGISDADIVGLNIPNGVPLVYELDESLTPIRHYYLGDQEAIAKAQAAVAQQGKSAA”, the “soluble on expression in E. coli” value is reported as “soluble”.
In the case of “MAHHHHHHMYNILQFVLKAYSIQNEEPSCDVENVKDLLNDQLCYVLYNITNYSSKYQWILILWAPEKNSILIDDIHENKEKKNNFIHIVDKEIYKYNNASKKINKLLYYSFKQNFLDIIFNNYDIPLFEINNFVMLEKCIHDCNNKYYNYTNCPTLLNREKTKPKNDSFDIYNQYNLQKYYLLNIQLRSINNIIILNESSLCHDMKRLLEEPNICLNLFYIDVHNYKIISTHLNIDNIEQVHSIIKENKIFYVIYKVLDTYTFFYICNEICTNTKQKFLYSFFKPYLLEYLKKIKNIPIFLSIELSKTKHLIRFINADLKKNKNKNSN”, the “soluble on expression in E. coli” value is reported as “soluble”.
For “MAHHHHHHMYPKNELQVLNILYIIIYSFFVDEEIDNIKDETQEIQAYNYTSLMIPSDVSSENNSDTKHFSVVTISFFILYSENIKQVLNLQESIDIQKIKEKKEKKKKQEVFKDIMCSDIKYEKKIKRKKKKIFENKRSSKKNKNNIRDFINLEKDIIITKTLMYNKKKKLDDIYKYTSKKEKTINNLNKNMIKEAAHMQELLIENFKKTEDLIKVRRGGGKIKKKEKTQRIYIHIYIHIYIHI”, the “soluble on expression in E. coli” value was “not soluble”.
In the case of “MAHHHHHHMYTRDVSDRISGISAADLAQRLVEVSARNTARDGALSPSVCQRPLPHCVSALLWDAKCAGAAPPRTALLRGDVVDMTSSVSDATLSCVALSDDVRFRFARSRHRRLTGILSSTAAPLPPRMCRVDVTHFYWMDECAPGLTYDDQSVLSTVLQKRIVQWAVSAFARNPLLRNISLQALEAVFPALLAFSPREREELLKHAAELLGQGTLIWYGQAMIKQFHESAASLALSLLTSSEERCSAALLFALATAQEVMGARRDDAAQALRFLLEVYGVRGVALSPALTTAALLVSRATVPLCTRRCLGAGSRQHHLLQPYLFPLSCAHVETLPWIPHNTHTSSPEHLRELVRRAREAAAAVLATAAPCTATTAQKRHAHEDDVNAFFSANHALEIHRDTLVTHASGDVPSSLPALKAADSGAAARSRLLEAAPKWWEQEAKASNSDTAREETELKLHVKAAAAELREPHGSDHALLAVIHRTRKRQRNREQPTAQTVEAALEGAAIRLKRRAFLQLVDIFALNAHTEDRDGKARQYLEQHHVAEAQIRDFTTLLSSTRKT”, the “soluble on expression in E. coli” value is reported as “not soluble”.
For “MAHHHHHHSLNDYTQQLQGKKDYLKTLFAGLDVPEWEVYESPDKHYRMRAEFRIWHEGGEMFYAMFEKGQKASGASMIRCDRFEAASEAVNRLMPELIAAAAQSPELKKRWYAVEFLSTLSGEMLVTMIYHKRLDAEWMQAAQALQQQLDISVIGRSRGQKIVLKQDYVTETLKVGNRDFRYRQIEGSFTQPNAAVCQKMLEWACRTAEGLGSDLLELYCGNGNFTLPLSRYFRQVLATEISKTSVSAAQWNIEANRIGNIKIARLSAEEFTEAYTGKREFKRLKDGGIALTDYAFSTIFVDPPRAGIDEETLKLVSQFDNIIYISCNPETLRANLDTLAETHAVERAALFDQFPFTHHIESGVLLKKKILEG”, the “soluble on expression in E. coli” value was “soluble”.
